Source: the nanobody polyreactivity screen of Harvey et al. (2022)

Experiment: yeast display, Sf9 membrane polyspecificity reagent, FACS + sequencing; frameworks hold sequencing errors
Outline: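 Genes from sorted yeast were amplified by colony PCR, read by MiSeq 2 × 250 sequencing and filtered on CDR length. These cells carried a synthetic nanobody library in Saccharomyces cerevisiae BJ5465 and were sorted by FACS into low and high (top ~1%) gates on anti-HA and streptavidin fluorescence. Polyreactivity is labelled according to the gate of origin.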

Sequence	polyreactivity (PSR sort gate)
QVQLVESGGGLVQAGGSLRLSCAASGRTFHYYAMGWYRQAPGKERELVAAITRGGNTYYADSVKGRFTISRDNAKNTVYLQMNSLKPEDTAVYYCAKDNHFEAYRYDYWGQGTQVTVSS	low polyreactivity
QVQLVESGGGLVQAGGSLRLSCAASGRTFHYYVRGWSRQAPGKERELVAAISRSGGNTYYADSVKGRFTISRDNAKNTVYLQMNSLKPEDTAVNYCAAALSAYVKWDYYYWGQGTQVTVSS	low polyreactivity
QVQLVESGGGLVQAGGSLRLSCAASGRTFIAYAMGWYRPAPGKERALVAAITSSGGSTYYADSVKGRFTISRDNAKNTVYLQMNSLKPEDTAVFYCATDIYESPYFYYSYYYWGQGTQVTVSS	low polyreactivity
QVQLVESGGGLVQAGGSLRLSCAASGRTFIENAMGWYRQAPGKERELVAAISRGGSTYYADSVKGRFTMSRDNAKNTVYLQMNSLKPEDTAVYYCAADYFYLFHYSSQKYSRYEYWGQGTQVTVSS	low polyreactivity
QVQLVESGGGLVQAGGSLRLSCAASGRTFIGNAMGWYRQAPGKERELVATITSSAGTTYYADSVKGRFTISRDNAKNTVYLQMNSLKPEDTAVYYCAKRIWRSYPYRAYYSEFGYWGQGTQVTVSS	high polyreactivity
QVQLVESGGGLVQAGGSLRLSCAASGRTFIIYAMGWYRQAPGKERELVATISIGGSTYADSVKGRFTISRDNAKNTVYLQMNSLKPEDTAVYYCAARGRKYPPRDYWGQGPQVTVSS	high polyreactivity
QVQLVESGGGLVQAGGSLRLSCAASGRTFILYAMGWYRQAPWKERELVAAITRRGGRTYYADSVKGRFTISRDNAKNTVYLQMNSLKREDTAVYYCAADQYYYTQPSDMDYWGQGTQVTVSS	high polyreactivity
QVQLVESGGGLVQAGGSLRLSCAASGRTFILYTMGWYRQAPGKERELVAAITTGGSTSYADSVKGRVTISRDNAKNTVYLQMNSLKPEDTAVYYCNALSRLRYKPRLYDYWGQGTQVTVSS	low polyreactivity
QVQLVESGGGLVQAGGSLRLSCAASGRTFIPYAMGWYRQAPGKERELVAAISYSGGSTYYADSVKGRFTISRDNAKNTVYLQMYSLKPEDTAVYYCNAYYGSYYYDYNYWGQGTQVSVSS	high polyreactivity
QVQLVESGGGLVQAGGSLRLSCAASGRTFIRNAMGWYRQAPGKERELVAAISRGGGTYYADSVKGRFTISRDNAKNTVYLQMNSLKPEDTAVYYCAAGFRSPYYWGQGTQVTVSS	high polyreactivity
QVQLVESGGGLVQAGGSLRLSCAASGRTFIRNAMGWYRQAPGKERELVASIRRSGGSTYYADSVKGRFTISRDNAKNTVYLQMNSLKPEDTAVYYSAAVHRFLLGYGYWGQGTQVTVSS	high polyreactivity
QVQLVESGGGLVQAGGSLRLSCAASGRTFIRYAMGWYRQAPGKESELVAAISSRGGRTHYADSVKGRFTISRDNAKNTVYLQMNSLKPEDTAVYYCAADLTYVTVPGASYDYWGQCTQVTVSS	low polyreactivity
QVQLVESGGGLVQAGGSLRLSCAASGRTFIRYAMGWYRQAPGNERELVAAISWSGDRTYYADSVKGRFTISRDNAKNTVYLQMNSLKPEDTAVYYCNAYRYLRTATFLKFDYWGQGTQVTVSS	high polyreactivity
QVQLVESGGGLVQAGGSLRLSCAASGRTFIRYTTGWYRQAPGTERELVAAITSTGRTYYADSVKGRFTISRDNAKNTVYLQMNSLKPEDTAVYYCAAEAGYGDYYYGYDYWGQGTQVTVSS	low polyreactivity
QVQLVESGGGLVQAGGSLRLSCAASGRTFISNVIGWYRKAPGKERDLVAAITWRGGRTHYADSVKGRFTISRDNAKITVYLQMNSLKPEDTAVYYCAARYIPIQYPSYRTWGGYSWGQGTQVTVSS	high polyreactivity
QVQLVESGGGLVQAGGSLRLSCAASGRTFISYAMGWYRQAPGKERELVAGISRGGSTYYADSVKGRFTISRDNAKNTVYLQMNSLKPEDTAVYYCAARRWISSHSYKYGYWGQGTQVTVSS	high polyreactivity
QVQLVESGGGLVQAGGSLRLSCAASGRTFIVNTMGWYRQAPGKERELVAAITARGGRTYYADSVKGRFTISRDNAKNTVYLQMNSLKPEDTAVYYCNARTPPREAERYYWGQGTQVTVSS	low polyreactivity
QVQLVESGGGLVQAGGSLRLSCAASGRTFIVYAMGWYRQAPGKERELVAAISGRGGGNTYYADSVKGSFTISRDNAKNTVYLQMNSLKPEDTAVYYCAADTYSWYSYRDYYYWGQGTQVTVSS	low polyreactivity
QVQLVESGGGLVQAGGSLRLSCAASGRTFIVYAMGWYRQAPGKERELVARISSGSRTSYADSVKGRFTISRDNAKNTVYLQMNSLKPEDTAVYYCAKSRVIKYEFDYWGQGTQVTVSS	low polyreactivity
QVQLVESGGGLVQAGGSLRLSCAASGRTFIYNTMGWYRQAPGKERELVAAITSGGSTNYADSVKGRFTISRDNAKNTVYLQMNSLKPEDTAVYYCATQGLSAPFDGFVNSRFDHWGQGTQVTVSS	low polyreactivity

Sequence	polyreactivity (PSR sort gate)
QVQLVESGGGLVQAGGSLRLSCAASGRTFKAYAMGWYRQAPGKERELVAGISWSGGNTYYADSVKGRFTISRDNAKNTVYLQMNSLKPEDTAVYYCAASLGGLWEDDYWGQGTQVTVSS	high polyreactivity
QVQLVESGGGLVQAGGSLRLSCAASGRTFKDYAMGWYRPAPGKERELVAAISWSGGDTYYADSVKGRFTISRDNAKNTVYLQMNSLKPEDTAVYYCNADPSGVFFYSLEFDYWGQGTQVTVSS	low polyreactivity
QVQLVESGGGLVQAGGSLRLSCAASGRTFKGNAMGWYRQAPGKEIELVAAISKSGGRTYYADSVKGRFTISRDNAKNTVYLQMNSLKPEDTAVYYCAVDVGPTKVRFGYLGQGTQVTVSS	high polyreactivity
QVQLVESGGGLVQAGGSLRLSCAASGRTFKGYAMGWYRQAPGKERELVAAISYRGGSTYYADSVKGRFTISRDKAKKTFYLQMNSLKPEDTAVYYCAADIQPYVYDGYPVGMDYWGQGTQVTVSS	high polyreactivity
QVQLVESGGGLVQAGGSLRLSCAASGRTFKHYAMGWYRPAPGKERELVATITNTGGRTNYADSVKGRFTISRDNAKNTVYLQMYSLKPEDTAVYYCNRVNDYYRPGGRPFGIFDYWGQGTQVTVSS	low polyreactivity
QVQLVESGGGLVQAGGSLRLSCAASGRTFKKYAMGWYRQAPGKERELVAAISWSGGTTYYADSVKGRFTISRDNAKNTVYLQMNSLKPEDTAVYYCAARVSRTGHGYYYFWGQGTQVTVSS	high polyreactivity
QVQLVESGGGLVQAGGSLRLSCAASGRTFKKYAMGWYRQAPGKERELVAAITGSGGSTYYADSVKVRYTISRDNAKNTVYLQMNSLKPEDTAVYYCAAYAYGVGHSQDGGNYWGQCTQVTVSS	low polyreactivity
QVQLVESGGGLVQAGGSLRLSCAASGRTFKPYAMGWYRQAPGKERELVAAISSRGTSTNYADSVKGRFTISRDNAKNTVYLQMNSLKPEDTAVYYCNRVLLPGPQYQWGKAYDYWGQGTQVTVSS	high polyreactivity
QVQLVESGGGLVQAGGSLRLSCAASGRTFKRYAMGWYRQAPGKERELVAAISWSGTSTHYADSVKGRFTISRDNAKNTVYLQMNSLKPEDTAVYYCAARRYPVLNYDYWGQGTQVNVSS	high polyreactivity
QVQLVESGGGLVQAGGSLRLSCAASGRTFKSNAMRWYRQAPGKERELVATISRGGGSTYYADSVKGRFTISRDNAKNTVYLQMNSLKPEDTAVYYCAIGSNSYLRYHYTYPYDYWGQGTQVTVSS	high polyreactivity
QVQLVESGGGLVQAGGSLRLSCAASGRTFKSYAMGWYRQAPGKERELVAAISRSSGSTYYADSVKGRFTISRDNAKNTVYLQMNSLKPEDTAVYYCATTKRVGYNYWGQGTQVTVSS	high polyreactivity
QVQLVESGGGLVQAGGSLRLSCAASGRTFKSYTLGWYRQAPGKEREFVAAISSRGGNTYYADSVNGRFTISRDNAKNTVYLQMNSLKPEDTAVYYSAAESSFWSFPTYDYWGQGTQVTVSS	high polyreactivity
QVQLVESGGGLVQAGGSLRLSCAASGRTFKTYARGWYREAPGKERELVAAISRDGRTYYADSVKGRFTISRDNAKNTVYLQRNSLKPEDTAVYYCAVGIYDHLYNHEYWGQGTQVTVSS	low polyreactivity
QVQLVESGGGLVQAGGSLRLSCAASGRTFKTYTMGWYRQEPGKERELVAVISSGGGSTNYADSVKGRFTISRDNAKNTVYLQMNSLKPEDTAVYYCAARKTGRPKYRYDYWGQGTQVTVSS	low polyreactivity
QVQLVESGGGLVQAGGSLRLSCAASGRTFKYNAMGWYRQAPGKERELVAAISDRGTRKYYADSVKGRFTISRDNAKNSVYLQMNSLKPEDTAVYYCAARVTGKDRWYIYYWGQGTQVTVSS	high polyreactivity
QVQLVESGGGLVQAGGSLRLSCAASGRTFKYNAMGWYRQAPGKERELVAVIRYSGGTTYYADSVKGRFTISRDNAKNTVYLQMNSLKPEDTAVYYCNADGPYVLPGWYFRTDNSWGQGTQVTVSS	low polyreactivity
QVQLVESGGGLVQAGGSLRLSCAASGRTFKYNAMGWYRQAPGKERELVAVISRSTGRTYYADSVKGRFTISRDNAKNTFYLQMNSLKPEDTAVYSCNRVSRQYYYQRGFEYDYWGQGTQVTVSS	high polyreactivity
QVQLVESGGGLVQAGGSLRLSCAASGRTFKYYAMGWYRQAPGKERELVAAINSGGITYYADSVKGRFTISRDNAKNTVYLQMNSLKPEDTAVYYCAKVWKIGVLRYPSYGYYYWGQGTQVTVSS	high polyreactivity
QVQLVESGGGLVQAGGSLRLSCAASGRTFKYYAMGWYRQAPGKERELVAAITSTGGSTYYADSVKGRFTISRDNAKNTVYLQMHSLKPEDTAVYYCNRYTQYRDRSDNHWGQGTQVTVSS	high polyreactivity
QVQLVESGGGLVQAGGSLRLSCAASGRTFLGYAMGWSRQAPGKERELVAAISTGGGRTYYADSVKGRFTISRDNAKNTVYLQMNSLKPEDTAVYYCATVPRHGAPTTFNYWGQGTQVTVSS	high polyreactivity
